From paper PMC5095702 (Biochemistry, 2016)

Target: the molecule itself
Assay: SEC

B1: KdnB from Shewanella oneidensis (enzyme, S. oneidensis, UniProt Q8EEB0 1-356, looked up)
chain: MSFKNFKVVEKMIFGRGSFVQLDDVLAAQRKADDDFVVFLVDDVHQGKPLEARIPVKAQDLLIWVNVDEEPSTIQIDALTEQVQAFNGKLPVSVVGLGGGSTMDVAKAVSLMLTNPGGSAMYQGWDLIKKPAVHHIGIPTISGTGAEASRTAVLCGPVRKLGLNSDYTVFDQIIMDSELIDGVETDQWFYTGMDCYIHCVESLEGTFLNEFSKAYAEKAMDLCRQVYLEDHPEKDDKLMMASFMGGMSIAYSQVGACHAVSYGLSYILGYHHGIGNCIAFDVLEEFYPEGVAEFRLMMKKHNITLPKNICKDLPDETIAKMVAVTKSMGPLWANVYGPTWEEKVTDEMLTALFRRI
  stoichiometry N: 2
